# Results: PMC6314544
# Key:
# hLC3-KCK-his6 (human) [1] = target: hLC3-KCK-his6 (human) (UniProt Q9GZQ8); test: FRET or BRET; various concentrations of Alexa Fluor 546-labeled NT JMY added to 200 nM Alexa Fluor 647-labeled LC3; 100 mM KCl, 20 mM Hepes pH 7.4
# hLC3-KCK-his6 (human) [2] = target: hLC3-KCK-his6 (human) (UniProt Q9GZQ8); test: AUC; sedimentation equilibrium of purified LC3 in solution; dimer to monomers
Kd (hLC3-KCK-his6 (human) [1]) [nM],Kd (hLC3-KCK-his6 (human) [2]) [nM],Substance
55,–,"SNAP-JMY (1-314), N-terminal region of JMY (from UniProt Q8N9B5 1-314) (domain or fragment)"
–,> 700000,hLC3-KCK-his6 (from UniProt Q9GZQ8 1-120) (natural protein)
